The target of test [1] is human NPRB (natriuretic peptide receptor B) (human) (UniProt P20594). The test is described as follows: cell-based or functional assay.
Test [2] addresses rat NPRB (natriuretic peptide receptor B) (rat) (UniProt P16067). The test is described as follows: cell-based or functional assay.

Chain of rat NPRB (natriuretic peptide receptor B) (rat) (P16067 17-1047): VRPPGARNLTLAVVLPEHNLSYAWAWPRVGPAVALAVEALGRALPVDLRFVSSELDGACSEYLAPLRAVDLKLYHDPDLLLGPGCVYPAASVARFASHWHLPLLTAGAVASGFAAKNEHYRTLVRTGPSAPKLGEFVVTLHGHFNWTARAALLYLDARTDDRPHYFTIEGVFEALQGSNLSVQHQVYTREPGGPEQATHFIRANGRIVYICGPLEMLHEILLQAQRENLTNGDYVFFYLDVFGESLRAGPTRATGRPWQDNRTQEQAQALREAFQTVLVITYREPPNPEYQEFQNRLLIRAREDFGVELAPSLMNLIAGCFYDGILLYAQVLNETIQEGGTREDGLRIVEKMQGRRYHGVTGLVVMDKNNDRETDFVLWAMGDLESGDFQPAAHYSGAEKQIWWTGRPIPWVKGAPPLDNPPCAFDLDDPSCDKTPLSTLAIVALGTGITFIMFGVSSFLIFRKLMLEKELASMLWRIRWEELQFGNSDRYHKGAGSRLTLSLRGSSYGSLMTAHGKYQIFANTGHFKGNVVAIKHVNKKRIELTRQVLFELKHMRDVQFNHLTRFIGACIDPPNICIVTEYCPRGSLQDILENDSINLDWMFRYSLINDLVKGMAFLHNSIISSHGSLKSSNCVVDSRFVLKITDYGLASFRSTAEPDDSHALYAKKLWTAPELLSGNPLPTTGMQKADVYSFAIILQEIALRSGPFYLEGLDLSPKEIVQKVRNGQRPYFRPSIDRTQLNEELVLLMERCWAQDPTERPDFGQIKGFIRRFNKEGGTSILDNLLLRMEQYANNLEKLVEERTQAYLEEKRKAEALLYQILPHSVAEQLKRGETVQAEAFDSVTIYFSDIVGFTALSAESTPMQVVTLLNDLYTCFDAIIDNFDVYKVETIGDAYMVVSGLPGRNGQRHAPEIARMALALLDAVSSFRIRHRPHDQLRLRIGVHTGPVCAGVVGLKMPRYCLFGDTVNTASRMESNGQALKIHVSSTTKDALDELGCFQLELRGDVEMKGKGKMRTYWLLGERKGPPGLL
Chain of human NPRB (natriuretic peptide receptor B) (human) (P20594 23-1047): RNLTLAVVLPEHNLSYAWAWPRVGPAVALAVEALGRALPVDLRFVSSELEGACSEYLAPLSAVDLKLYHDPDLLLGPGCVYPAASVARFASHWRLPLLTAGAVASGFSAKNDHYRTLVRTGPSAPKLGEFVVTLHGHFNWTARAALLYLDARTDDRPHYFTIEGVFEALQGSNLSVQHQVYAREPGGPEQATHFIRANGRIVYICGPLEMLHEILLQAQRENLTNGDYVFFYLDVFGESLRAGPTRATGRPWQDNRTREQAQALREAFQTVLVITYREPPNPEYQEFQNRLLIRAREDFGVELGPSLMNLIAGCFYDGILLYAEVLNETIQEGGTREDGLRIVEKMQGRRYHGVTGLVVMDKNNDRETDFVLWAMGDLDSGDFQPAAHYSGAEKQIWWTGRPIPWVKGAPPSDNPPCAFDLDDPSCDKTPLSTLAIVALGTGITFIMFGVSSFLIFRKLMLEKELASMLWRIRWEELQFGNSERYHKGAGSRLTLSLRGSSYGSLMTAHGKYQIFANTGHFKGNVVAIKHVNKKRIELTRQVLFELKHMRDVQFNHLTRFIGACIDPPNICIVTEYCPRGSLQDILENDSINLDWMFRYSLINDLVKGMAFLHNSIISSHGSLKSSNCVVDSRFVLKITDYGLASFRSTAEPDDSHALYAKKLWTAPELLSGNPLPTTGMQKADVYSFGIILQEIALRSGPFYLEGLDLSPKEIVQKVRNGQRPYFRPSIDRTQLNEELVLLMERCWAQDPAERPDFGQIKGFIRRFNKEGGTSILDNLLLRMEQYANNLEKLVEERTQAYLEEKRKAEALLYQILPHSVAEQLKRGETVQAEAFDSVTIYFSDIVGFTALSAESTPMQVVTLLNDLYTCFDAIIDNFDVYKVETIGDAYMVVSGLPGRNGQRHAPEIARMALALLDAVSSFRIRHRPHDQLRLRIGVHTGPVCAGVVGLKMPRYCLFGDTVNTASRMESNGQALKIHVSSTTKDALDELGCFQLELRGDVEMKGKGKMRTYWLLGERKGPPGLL

As for “human CNP-22 (from UniProt P23582 105-126) (peptide)”, the cGMP production (HTRF) in HEK293 cells overexpressing NPRB; concentration that defines the 100% response in test [1] and in test [2] was 1 µM in each case.
